# Molecular target: T1, human growth hormone receptor on IM-9 cells (Homo sapiens, UniProt P10912)
# T1 construct: host or cells: human IM-9 lymphocyte cell line
# T1 sequence (P10912 19-638): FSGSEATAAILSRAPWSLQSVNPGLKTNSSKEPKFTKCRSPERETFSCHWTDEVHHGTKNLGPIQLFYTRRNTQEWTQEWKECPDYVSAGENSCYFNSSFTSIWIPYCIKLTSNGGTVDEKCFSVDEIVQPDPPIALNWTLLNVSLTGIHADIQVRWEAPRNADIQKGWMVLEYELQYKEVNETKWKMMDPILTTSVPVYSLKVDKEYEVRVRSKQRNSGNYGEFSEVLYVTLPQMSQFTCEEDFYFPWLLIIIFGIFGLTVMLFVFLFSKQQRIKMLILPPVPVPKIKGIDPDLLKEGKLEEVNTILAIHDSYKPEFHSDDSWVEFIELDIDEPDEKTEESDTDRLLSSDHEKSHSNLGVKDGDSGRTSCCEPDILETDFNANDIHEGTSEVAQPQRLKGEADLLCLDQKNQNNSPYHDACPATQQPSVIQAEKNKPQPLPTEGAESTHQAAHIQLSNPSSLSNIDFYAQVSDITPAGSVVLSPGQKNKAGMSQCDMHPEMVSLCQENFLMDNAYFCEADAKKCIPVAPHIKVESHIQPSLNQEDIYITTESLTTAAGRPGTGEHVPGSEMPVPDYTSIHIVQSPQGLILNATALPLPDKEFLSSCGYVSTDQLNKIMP
# Assay: Inhibition of WHO hGH induced phosphorylation of STAT5 in IM-9 cells
# Assay type: cell-based
# Excerpt: To further assess the biological activity of modified hGH polypeptides, an assay measuring a downstream marker of hGH's interaction with its receptor was used. The interaction of hGH with its endogenously produced receptor leads to the tyrosine phosphorylation of a signal transducer and activator of transcription family member, STAT5, in the human IM-9 lymphocyte cell line. Two forms of STAT5, STAT5A and STAT5B were identified from an IM-9 cDNA library. See, e.g., Silva et al., Mol. Endocrinol. (1996) 10(5):508-518.
molecule,measurement,value
"rat GHR (L43R) extra cellular domain: extracellular domain of rat GH receptor (amino acids S29-T238) with L43 to R mutation (protein, left off: small tags and cut ends, extracellular domain of rat GH receptor (amino acids S29-T238) with L43 to R mutation) SSGKPRFTKCRSPERETFSCYWTEGDDHNLKVPGSIQLYYARRIAHEWTPEWKECPDYVSAGANSCYFNSSYTSIWIPYCIKLTTNGDLLDEKCFTVDEIVQPDPPIGLNWTLLNISLPGIRGDIQVSWQPPPSADVLKGWIILEYEIQYKEVNETKWKTMSPIWSTSVPLYSLRLDKEHEVRVRSRQRSFEKYSEFSEVLRVTFPQMDT",competition against hGH stimulated pSTAT5 phosphorylation / antagonist potency,compete effectively against hGH stimulated pSTAT5 phoshorylation

# Reference: patent US8143216B2, “Modified human growth hormone” (Ambrx, Inc., priority 2004, dated 2012)
